Test results taken from the supplement of paper PMC12338614.
± gives the uncertainty stated by the source.

B1: library; numbered along this chain (parent)
chain: MEVVDPQQLGMFTEGELMSVGMDTFIHRIDSTEVIYQPRRKRAKLIGKYLMGDLLGEGSYGKVKEVLDSETLCRRAVKILKKKKLRRIPNGEANVKKEIQLLRRLRHKNVIQLVDVLYNEEKQKMYMVMEYCVCGMQEMLDSVPEKRFPVCQAHGYFCQLIDGLEYLHSQGIVHKDIKPGNLLLTTGGTLKISDLGVAEALHPFAADDTCRTSQGSPAFQPPEIANGLDTFSGFKVDIWSAGVTLYNITTGLYPFEGDNIYKLFENIGKGSYAIPGDCGPPLSDLLKGMLEYEPAKRFSIRQIRQHSWFRKKHPPAEAPVPIPPSPDTKDRWRSMTVVPYLEDLHGADEDEDLFDIEDDIIYTQDFTVPGQVPEEEASHNGQRRGLPKAVCMNGTEAAQLSTKSRAEGRAPNPARKACSASSKIRRLSACKQQ

Variants of: B1
Assay: STK11 functional score (HeLa growth suppression), rescaled enrichment; synonymous median = 1, nonsense median = 0 (normalised score)
Conditions: with HeLa; variant type: missense
Outline: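 The values are functional scores: wild-type-corrected log ratios of post- versus pre-selection abundance, rescaled to synonymous and nonsense medians, merged over codons and replicate transfections, and carrying bootstrapped error. They derive from codon-randomised (POPCode), codon-optimised STK11 libraries that Bxb1 integrated at an AAVS1 landing pad in HeLa, with three transfections for each of three regions. Sequencing of tiled gDNA amplicons ran on NextSeq, at ~2 million reads per tile.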

P275M and P387Y are within error of each other in STK11 functional score: 0.445 ± 0.12 for the first, 0.935 ± 0.43 for the second.

P387T and D348T are within error of each other in STK11 functional score: 1.56 ± 0.24 for the first, 1.57 ± 0.27 for the second.

D348G and D348Y are within error of each other in STK11 functional score: 1.26 ± 0.17 for the first, 0.868 ± 0.53 for the second.

S59R and R39L are within error of each other in STK11 functional score: 1.5 ± 0.31 for the first, 1.45 ± 0.17 for the second.

R39C and P254Y are within error of each other in STK11 functional score: 0.223 ± 0.2 for the first, 0.0833 ± 0.12 for the second.

First: P254L
Second: S169I
The STK11 functional score of the first is higher: 0.528 ± 0.12 for the first, 0.231 ± 0.09 for the second.

G408T and G408A are the same in STK11 functional score: 1.61 ± 0.15 for the first, 1.61 ± 0.34 for the second.

Compared with G408H, F255V is lower in STK11 functional score: 1.63 ± 0.17 for the first, 1.09 ± 0.13 for the second.

F255Y and K96E are within error of each other in STK11 functional score: 1.25 ± 0.79 for the first, 0.384 ± 0.32 for the second.

K96R and T24Y are within error of each other in STK11 functional score: 1.18 ± 0.16 for the first, 1.49 ± 0.37 for the second.

I224T and R147S are within error of each other in STK11 functional score: 0.252 ± 0.4 for the first, 0.855 ± 0.32 for the second.

D23G and K64Q are within error of each other in STK11 functional score: 1.54 ± 0.2 for the first, 1.58 ± 0.26 for the second.

Going from K124W to K124Y, the STK11 functional score rises from 0.166 ± 0.11 to 1.25 ± 0.086.

W332A and P144N are within error of each other in STK11 functional score: 1.56 ± 0.26 for the first, 1.53 ± 0.23 for the second.

First: Q170E
Second: P413W
The STK11 functional score of the first is lower: 0.234 ± 0.13 for the first, 0.886 ± 0.37 for the second.

Compared with L140D, K269H is higher in STK11 functional score: 0.0191 ± 0.11 for the first, 1.49 ± 0.22 for the second.

E407R and E407M are within error of each other in STK11 functional score: 1.52 ± 0.15 for the first, 1.58 ± 0.15 for the second.

First: K175Y
Second: L427R
The STK11 functional score of the first is lower: 0.592 ± 0.48 for the first, 1.56 ± 0.2 for the second.

E16F and A205I are within error of each other in STK11 functional score: 1.42 ± 0.42 for the first, 1.47 ± 0.18 for the second.

A205L and A205D are within error of each other in STK11 functional score: 0.703 ± 0.24 for the first, 1.33 ± 0.46 for the second.

P369C and Q214E are within error of each other in STK11 functional score: 1.31 ± 0.39 for the first, 1.36 ± 0.5 for the second.

D350Q and D350R are within error of each other in STK11 functional score: 1.49 ± 0.19 for the first, 1.61 ± 0.17 for the second.

Compared with D350G, L252Y is lower in STK11 functional score: 1.29 ± 0.28 for the first, 0.274 ± 0.59 for the second.

L252W and T395Q are within error of each other in STK11 functional score: 1.42 ± 0.17 for the first, 1.5 ± 0.32 for the second.

Going from M289E to S19L, the STK11 functional score rises from -0.103 ± 0.1 to 0.775 ± 0.094.

G346F and G346T are within error of each other in STK11 functional score: 1.29 ± 0.54 for the first, 1.62 ± 0.21 for the second.

S307D and S307W are within error of each other in STK11 functional score: 1.49 ± 0.16 for the first, 1.47 ± 0.15 for the second.

Compared with V95S, V95F is lower in STK11 functional score: 1.4 ± 0.18 for the first, 0.945 ± 0.26 for the second.

Compared with V95Y, C134Q is lower in STK11 functional score: 1.55 ± 0.17 for the first, 0.746 ± 0.38 for the second.

C134I and V34G are within error of each other in STK11 functional score: 1.42 ± 0.084 for the first, 1.08 ± 0.45 for the second.

Compared with F354E, S240P is lower in STK11 functional score: 1.45 ± 0.27 for the first, -0.0488 ± 0.11 for the second.

First: S240G
Second: L17G
The STK11 functional score of the first is lower: 1.05 ± 0.16 for the first, 1.53 ± 0.25 for the second.

Going from K82W to T249D, the STK11 functional score falls from 1.33 ± 0.33 to -0.107 ± 0.097.

Going from E65R to R426H, the STK11 functional score rises from 0.846 ± 0.099 to 1.61 ± 0.28.

R426V and K329M are within error of each other in STK11 functional score: 1.62 ± 0.26 for the first, 1.55 ± 0.15 for the second.

K329N and D229E are within error of each other in STK11 functional score: 1.36 ± 0.49 for the first, 1.03 ± 0.51 for the second.

Compared with D229W, V320H is higher in STK11 functional score: 0.347 ± 0.17 for the first, 1.59 ± 0.27 for the second.

First: A429C
Second: M18D
The STK11 functional score of the first is higher: 1.62 ± 0.14 for the first, 0.127 ± 0.19 for the second.

Going from M18W to D176N, the STK11 functional score falls from 0.78 ± 0.076 to -0.273 ± 0.098.

I303Q and Q371M are within error of each other in STK11 functional score: 1.56 ± 0.24 for the first, 1.46 ± 0.33 for the second.

First: I192W
Second: M392F
The STK11 functional score of the first is lower: 0.0777 ± 0.23 for the first, 1.17 ± 0.41 for the second.

With G188M the STK11 functional score was -0.0265 ± 0.12.
